Laboratory results as given in article PMC9601805, “Characterization of the Escherichia coli pyridoxal 5′‐phosphate homeostasis protein (YggS): Role of lysine residues in PLP binding and protein stability” (Protein Science : A Publication of the Protein Society, 2022).

Tests used:
apo‐YggS = target: T1, apo‐YggS (Escherichia coli, UniProt P67080); experiment: biochemical; format: binding; settings: WT apo-YggS
T1 construct: made in house; host or cells: E. coli HMS174(DE3)
Description: Equilibrium binding analyses were carried out by measuring the decrease of protein intrinsic fluorescence observed upon the addition of increasing PLP concentrations to a fixed concentration of apo‐YggS (Figure 1b).
Dissociation constants were calculated from saturation curves obtained measuring the protein fluorescence emission intensity as a function of increasing PLP concentration. […] Fluorescence emission spectra were recorded from 310 to 450 nm upon excitation at 280 nm. Excitation and emission slits were set at 3 and 5 nm, respectively.

[1] = Differential scanning fluorimetry (DSF), apparent Tm of YggS forms; format: physicochemical; settings: for T m (°C) Apo +2 μM PLP: 2 μM protein + 2 μM (equimolar) PLP; for T m (°C) Apo + 300 μM PLP: 2 μM protein + 300 μM PLP; for T m (°C) Apo: apo-form, 2 μM protein, no PLP
Description: Differential scanning fluorimetry (DSF) assays were performed on a Real Time PCR Instrument (CFX Connect Real Time PCR system, Bio‐Rad, Hercules, CA). In a typical experiment, 2 μM WT and variant apo‐YggS forms in 50 mM NaHEPES, pH 7.5, 50 mM NaCl, and Sypro Orange (5x, Thermo Scientific) were mixed with various ligands (total volume of 25 μl) in a 96‐well PCR plate. Fluorescence was measured from 25°C to 95°C in 0.4°C/30 s steps (excitation 450–490 nm; detection 560–580 nm). All samples were run in triplicate. Denaturation profiles were analyzed as described in Nardella et al.[40]

[2] = Covalent (Schiff base) PLP binding judged by absorption spectra; settings: ~416–420 nm band
Description: Our strategy was to start from the K36A variant and gradually add further variations so as to obtain all possible combinations of double, triple, and quadruple variants. Variations of the last two residues at the C‐terminal end of the protein, K233 and K234, were always introduced together and are therefore considered as a single K233A/K234A variation.
All spectroscopic measurements were carried out at 20°C in 20 mM NaHEPES pH 7.5. UV–visible spectra were recorded with a Hewlett‐Packard 8453 diode‐array spectrophotometer. Far‐UV (190–250 nm) and Near‐UV–visible (250–500 nm) CD spectra were measured with a Jasco 710 spectropolarimeter equipped with a DP 520 processor using 0.1‐cm (far‐UV) or 1‐cm path length quartz cuvettes and results were expressed as ellipticity [Θ]. Absorption spectra of WT and variant forms were deconvoluted into their component bands using Metzler's band‐shape analysis method.[22]

T1 sequence (P67080 whole entry): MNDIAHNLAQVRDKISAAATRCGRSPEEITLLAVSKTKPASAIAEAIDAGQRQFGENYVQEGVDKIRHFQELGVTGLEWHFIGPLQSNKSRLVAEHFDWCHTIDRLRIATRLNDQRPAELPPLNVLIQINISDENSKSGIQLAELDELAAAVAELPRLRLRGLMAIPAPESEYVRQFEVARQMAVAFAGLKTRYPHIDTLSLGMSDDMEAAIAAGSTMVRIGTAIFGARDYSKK

Molecule | change in fluorescence emission attributable to binding (apo‐YggS) | T m (°C) Apo +2 μM PLP [1] [°C] | T m (°C) Apo + 300 μM PLP [1] [°C] | T m (°C) Apo [1] [°C] | capability to bind PLP covalently as a Schiff base [2]
Cc1ncc(COP(=O)(O)O)c(C)c1O [4dPNP] | could only be detected with PL and PNP | – | – | – | –
Cc1ncc(CO)c(CO)c1O [PN, pyridoxine] | could only be detected with PL and PNP | – | – | – | –
K36A/K38A/K233A/K234A: E. coli YggS triple lysine variant (protein, left off: His-tag, C-terminal, state not stated, E. coli YggS triple lysine variant) MNDIAHNLAQVRDKISAAATRCGRSPEEITLLAVSATAPASAIAEAIDAGQRQFGENYVQEGVDKIRHFQELGVTGLEWHFIGPLQSNKSRLVAEHFDWCHTIDRLRIATRLNDQRPAELPPLNVLIQINISDENSKSGIQLAELDELAAAVAELPRLRLRGLMAIPAPESEYVRQFEVARQMAVAFAGLKTRYPHIDTLSLGMSDDMEAAIAAGSTMVRIGTAIFGARDYSAA | – | 68.9 ± 0.1 | 69.6 ± 0.1 | 68.8 ± 0.1 | lost the capability to bind PLP covalently
K36A/K38A/K137A/K233A/K234A: E. coli YggS quadruple lysine variant (protein, left off: His-tag, C-terminal, state not stated, E. coli YggS quadruple lysine variant) MNDIAHNLAQVRDKISAAATRCGRSPEEITLLAVSATAPASAIAEAIDAGQRQFGENYVQEGVDKIRHFQELGVTGLEWHFIGPLQSNKSRLVAEHFDWCHTIDRLRIATRLNDQRPAELPPLNVLIQINISDENSASGIQLAELDELAAAVAELPRLRLRGLMAIPAPESEYVRQFEVARQMAVAFAGLKTRYPHIDTLSLGMSDDMEAAIAAGSTMVRIGTAIFGARDYSAA | – | 68.8 ± 0.1 | 69.1 ± 0.3 | 68.7 ± 0.1 | lost the capability to bind PLP covalently
K36A/K137A/K233A/K234A: E. coli YggS triple lysine variant (protein, left off: His-tag, C-terminal, state not stated, E. coli YggS triple lysine variant) MNDIAHNLAQVRDKISAAATRCGRSPEEITLLAVSATKPASAIAEAIDAGQRQFGENYVQEGVDKIRHFQELGVTGLEWHFIGPLQSNKSRLVAEHFDWCHTIDRLRIATRLNDQRPAELPPLNVLIQINISDENSASGIQLAELDELAAAVAELPRLRLRGLMAIPAPESEYVRQFEVARQMAVAFAGLKTRYPHIDTLSLGMSDDMEAAIAAGSTMVRIGTAIFGARDYSAA | – | 64.7 ± 0.1 | 66.0 ± 0.1 | 64.6 ± 0.1 | –
